Where “and” joins values, the source holds several entries; their conditions need not be identical. Equal entries are not always repeated.
Target: SFTSV glycoprotein Gc (SFTSV (Dabie bandavirus), strain JA1-2018)
Assay: cryo-EM structure

Substance: SFTSV glycoprotein Gc (natural protein)
- stoichiometry N: 5 and 6

From publication PMC10564799
